For assay [1], the target named is Ad5 hexon capsid protein with DogTag inserted into the HVR5 loop, on Ad5 virions (Ad5-HVR5-DogTag) (human adenovirus serotype 5 (Ad5)) (UniProt P04133).
Assay [2] has the same target. The source holds these as a separate data set.

In assay [1], “DogCatcher fused to SARS CoV-2 Spike receptor binding domain (Wuhan strain, residues 319-532) (from UniProt P0DTC2 319-532)” had a coupling efficiency (% total hexon protein coupled) of 64%. Consider “DogCatcher fused to the receptor binding domain of haemagglutinin (HA) from Influenza A (H1 A/Califo”, for which the coupling efficiency (% hexon coupled) in assay [2] came out at 44%.

The values above are taken from patent US20240240203A1.
